# Reference: the DeepSol protein solubility set
# Assay: soluble on expression in E. coli; label from the status in PepcDB or PDB records
row,Sequence,soluble on expression in E. coli
1,MAVSLSKGGNVSLSKEAPGLTGIVVGLGWDPRATDGQAFDLDGSVFLLDAGGKVRGDSDFIFYNNKTSSDGSVEHTGDNTTGAGEGDDETVKIDLSKVPADVDKIAVCVTIHEAETRNQNFGQVSKAYIRVMNQTGGAEIARYDLSEDASTDTAMIFGEVYRHGSDWKFKAVGQGYAGGLAPLARNYGVNV,soluble
2,MGSDKIHHHHHHMIPTFVVWSQSMFNDAIVYDRYGPPAAVLTLKRLPLAPLAGGRVRVRMRFAPVNPSDLIPVTGAYRHRTRLPAVAGYEGLGEVVAAPYGSRLAAGQRVLPLRGGGTWQRFIDLDETWLVPVPPAVDDLLAARGYINPLTAMLMLKRWPVAGKHLVLTAASSSCASLLGQWALAMGARSVSGIIRSPQHRARLEQAGIYPILDTDRALMEKVSQHSDLVFDAVGGELANTLLSVLPGSSTLISYGLLSGRPLTQTRGSATVRKFHLREALPTLSVAAWRAAFDEIWQRLPTTSQPPAQRIALNDWRAAIAAAGQPGRGGKILLDFTAG,not soluble
3,MSLGYHTLEVTVGNEAETATVISAPEKIELLDDMKNGSLWGWMSQLYSIRSKGSWGVGDFEDLKTMLVEAKKKTGSDFMLINPMHAAEPVPPLTPSPYLPISRRFINFSYIRPESMPEYLTLSHEDRAEVDALHEQVESLNDDARLIDRDAMWRVKKHALWVIYKAGRTKARQAEFDRYLAECGDEIESYATWCLCYDKWGAPSDDADNWVRKYNRDSEEVAQLREKFPDTLEFYRWLEWVATDQLHAAQQAARKAGMKIGIVADMAVGVHPAGSDVWWNPERFAKGATVGAPPDMFNQQGQDWSQPPLNPIALEQTGFKVYRDMVHDMFANAGAVRIDHILGLFRLWWIPEGKPATDGTYVHYDSDVMLGILALEASRAGGVVVGEDLGVVPAYVSKSLSEHGILGCAVEWFEQMDGVFRTPKDWRPYALASVNTHDMPPAAGYLEYGHVKLREQLGLLSGPVEEFQKSATAEHNAMLNMLVEEGYLDKAALDDEAANENEIVDALYRGLKGSPCKLMAASIVDAVGEKRTQNQPGTNNEYPNWRIPLADGEGNVVPLEKLFDEPRLQEITAIMREGHHHHHH,not soluble
4,MVERTAVFPAGRHSLYAEHRYSAAIRSGDLLFVSGQVGSREDGTPEPDFQQQVRLAFDNLHATLAAAGCTFDDIIDVTSFHTDPENQFEDIMTVKNEIFSAPPYPNWTAVGVTWLAGFDFEIKVIARIPEQ,soluble
5,NYDPFVRHSVTVKADRKTAFKTFLEGFPEWWPNNFRTTKVGAPLGVDKKGGRWYEIDEQGEEHTFGLIRKVDEPDTLVIGWRLNGFGRIDPDNSSEFTVTFVADGQKKTRVDVEHTHFDRMGTKHAKRVRNGMDKGWPTILQSFQDKIDEEGAKK,soluble
6,MKNKVVVVTGVPGVGGTTVTQKAMDILSEEGLNYKMVNFGSAMFDVANEEGLASDRDQMRKLDPETQKRIQKMAGRKIAEMAKESPVAVDTHSTVKTPKGYLPGLPAWVLTELNPDIVIVVETDGDEILMRRLSDESRKRDLETTASIEEHQFMNRAAAMSYGVLTGATVKIVKNKNGLVDNAVEELMSVLR,soluble
7,MGHHHHHHSHMDNAVDRHVFYISDGTAITAEVLGHAVMSQFPVTISSITLPFVENESRARAVKDQIDAIYHQTGVRPLVFYSIVLPEIRAIILQSEGFCQDIVQALVAPLQQEMKLDPTPIAHRTHGLNPNNLNKYDARIAAIDYTLAHDDGISLRNLDQAQVILLGVSRCGKTPTSLYLAMQFGIRAANYPFIADDMDNLVLPASLKPLQHKLFGLTIDPERLAAIREERRENSRYASLRQCRMEVAEVEALYRKNQIPWINSTNYSVEEIATKILDIMGLSRRMY,not soluble
8,MLEELGKVVEFKGKGVELHLDGQGEPFLYPYMEYFLEKASRMKGVEVVSIQSNGTLLTEEKISAIEDYVTRINLSLSSLDEKTAKTLHGAYSVKKVKEVAEMIASSKMDLLIAPVWVPGYNDREIPKIIEFALEIGAGKKYPPLGIQKYIPYRYGRKAGKSMPFKEFYRRLEEYEKEYGVKLVLGPEDFGMEKRPK,not soluble
9,MGSDKIHHHHHHMNDPAHPPIPPVSKRDAPAFSDLQHRATSASAFTQGSTTYHDVRPGYPAEAVELARGFGRVLDVGAGTGKLTSELTADQVLALDPSMDMLRVFRSALPAVPCWQATAEHTGIRDNAVDLITCAQTWHWVDVTAASAEFDRVIAPEGAVLLVWNNLDTSIAWVHRLSRIMHAGDVLKPGFTPETAAPWIIDREIRTTWNQHLTPEEIIQLAHTRSYWLNASEKIKERVDQNLQWYLYEHLGFSPDNPVELPYRCDAFLLSRSGTLAGRSSNL,not soluble
10,MRLDYALFSQHLVNSREKAKALVLKNQVLVNKMVVSKPSFIVKENDKIELIAEKLFVSRAGEKLGAFLETHFVDFKGKVVLDVGASKGGFSQVALLKGAKRVLCVDVGKMQLDESLKQDKRIECYEECDIRGFKTPETIDLALCDVSFISLYYILEAILPLSDEFLTLFKPQFEVGRGIKRNKKGVVVDKEAILNALENFKNHLKTKDFQILKIQESLVKGKNGNVEFFIHFKRA,not soluble
11,MSLKNNSEVFNVLHFSDIHIQLRYNVGAEANCTNLPCGAPDSYNKQLLPSSYNFSSYYQHFSPNVAKMEFSFYPDAHYDENSQYIKGDYYDFPLYRGWNFKNAPATSFGGYLTDSPAVLMNSSLISMAKMHKEKNFEFAIFTGDVVDHLLLSCTPEYTKEEEVKSFKAMKFFFNNLTVLPALGNHETGEYGQLSPIAYDFNGSYSWNQDEMVDLWINNEWFPAKDRYDLKSHYAGFSYVTNRGLKVIGLNSNAYYQKNLWSYIDLSTNPDLFGQWEFLVNELIESEEKGQRVWIMAHIPTTDYDTLPLQSRIFGKIVERFSPYTIANIFFAHTHMDQTHILYSTNSSKEAEDIINMSWVMQSVTPLANYNPSWRYYEVENESFNIINSFNYMTKLNDTEGHHHHHH,soluble
12,MRMRLMLLGGGNALGQALIRLGAEEDIGFLAPRPPQDGWDVASLTQLLDDTRPDALINLAYYFDWFQAETVSAARLTHQERSVERLAELCQHHNITLVQPSSYRVFDGSRATAYSEKDEPVPLGLRGQALWRIEQSVRATCPQHVLVRFGWLLDDSADGVLGRFLSRAKEPGELLLADDRRGNPTPVDDAARVIISIVKQLDCEAPLWGTYHYAGHEATTPLALGQAVLTEARLLHPLAIESPTAQAHAARPDAAEEPQHAVLACKKILHTFGIKPRAWRAGLPSLLDRYYRHV,not soluble
13,MSLRVRTPSDDPVASAQIELIKQRINNIELFQNNRQAADSALRLEEGILSNAVNSLHRLREIQIQAGNPSLSEEDRKTLAVEAQALLNQLLDYANTKDSNGSYMFSGSKSLTQPVSLNLSGQYVYNGDSTQRFQAVTTSLLVAVNDTGDNVFMRIPSGNGRFAIRETLTPNTGTASVSSGSVTNEAAFVPDNYTMTFALNSQGNLVVMVSGTLSGNVIPPSGLPDDAPLYQEGSAIGFNGMEMVVSGLPKAGDSFSISPAKNESIFSTVQRMINNLNKPYTSSVEKAATQTENNQLLAQIDSALGHILSVQSDLGARLNQLETAEKANNDYLDISAATLKKLREIDPVAVATELNLQLVNLQAAQLSFTRIQGLSLFNFLEGHHHHHH,soluble
14,MLEVDVVRISVIVPIYNVKLYIERCVRSLMEQTLENIEFIFVNDCTPDDSMDILHYVLEEYPKRREQIKIIEHETNRGISAVRNTGLKNATGQYIIYCDSDDWVEKNMYEKLLVKALETSADIVGCDFFDDYVAHSTIRKQLFPQQSEKCVKKMLRGELHCGTWNKLVIKSLYERTKIDFPEGINMWEDVSTIIPLCFHATKIDYIPEALYHYIHHNVSSYTYSVTEKSLENLVASIQLLESFFLTNQCFKTFGEDLCFMKLTVKLNLLLGSKGELQKKRNMLYSSANRYIFSYSGMSWYWKIALWVASKKMLFCFNVMSCIERIIKKWKLEHHHHHH,not soluble
15,MAAFNAKYLIDLLKRIRSGEESIDSPDALELLYIPLPLAHELGVINSMDGLDPYDEMEISCKSILKKLDEKKKTEEKHRAKQERQAQKKGAKEQAKKEKAELKKEAKELLKKEKAEERKKESLKRKLSEKSEPAAKKAKASEDQENRGATKKKITPPNRKHTALFKKCMAMRVKNFAY,not soluble
